The target in test [1] is T1, rat serum albumin (rat, UniProt P02770 25-608).
T1 construct: Bought; also called RSA
The test can be described thus: SPR Biacore2000 sensorgrams. On the procedure: (§1) The binding of the ABD variants obtained in Example 1 to human serum albumin (HSA), rat serum albumin (RSA), cynomolgus serum albumin (CSA) and mouse serum albumin (MSA) was analyzed by surface plasmon resonance using a Biacore2000 instrument.

Test [2] concerns the target T2, mouse serum albumin (mouse, UniProt P07724 25-608).
T2 construct: Bought; also called MSA
Put plainly: SPR Biacore2000 sensorgrams. On the procedure:
as §1
(SPR reads the build-up and loss of mass on a sensor chip optically.)

Test [3] concerns the target T3, human serum albumin (human, UniProt P02768 25-609).
T3 construct: Bought recombinant product; also called HSA; Albucult
The test can be described thus: SPR Biacore2000, HSA immobilized on CM-5, polypeptide as analyte, 1:1 Langmuir fit, relative values.
Method: (§2) Biosensor analysis on a Biacore2000 instrument (GE Healthcare) was performed with HSA (Albucult®, Novozymes), CSA (purified in-house from cynomolgus serum), RSA (Sigma-Aldrich, Cat. No. A6272) and MSA (Sigma-Aldrich, Cat. No. A3559) immobilized by amine coupling onto the carboxylated dextran layer of the surfaces of CM-5 chips (research grade; GE Healthcare) according to the manufacturer's recommendations.
(§3) ABD variants were used as analytes and were injected in duplicates over the chip at three analyte concentrations (2.5, 10 and 40 nM). The association phase was 5 min followed by a long dissociation phase (60 min) to account at least partially for the slow off-rate of the ABD variants. […] Therefore, all KD's are given as relative KD values only.
(§4) After subtraction of reference surface and buffer injection, curves were fitted to a 1:1 (Langmuir) binding model using BlAevaluation software with correction for mass transfer and with RUmax set as a local parameter.

The target of test [4] is T3, human serum albumin. The test can be described thus: SPR Biacore2000, albumin immobilized on CM-5, polypeptide as analyte, relative KD.
Method: as §2, §3, §4
In test [5] the target is T1, rat serum albumin. Described as above.
Method: as §2, §3, §4
For test [6], the target named is T4, cynomolgus serum albumin (cynomolgus).
T4 construct: Purified from serum; also called CSA
T4 sequence (A2V9Z4 25-608): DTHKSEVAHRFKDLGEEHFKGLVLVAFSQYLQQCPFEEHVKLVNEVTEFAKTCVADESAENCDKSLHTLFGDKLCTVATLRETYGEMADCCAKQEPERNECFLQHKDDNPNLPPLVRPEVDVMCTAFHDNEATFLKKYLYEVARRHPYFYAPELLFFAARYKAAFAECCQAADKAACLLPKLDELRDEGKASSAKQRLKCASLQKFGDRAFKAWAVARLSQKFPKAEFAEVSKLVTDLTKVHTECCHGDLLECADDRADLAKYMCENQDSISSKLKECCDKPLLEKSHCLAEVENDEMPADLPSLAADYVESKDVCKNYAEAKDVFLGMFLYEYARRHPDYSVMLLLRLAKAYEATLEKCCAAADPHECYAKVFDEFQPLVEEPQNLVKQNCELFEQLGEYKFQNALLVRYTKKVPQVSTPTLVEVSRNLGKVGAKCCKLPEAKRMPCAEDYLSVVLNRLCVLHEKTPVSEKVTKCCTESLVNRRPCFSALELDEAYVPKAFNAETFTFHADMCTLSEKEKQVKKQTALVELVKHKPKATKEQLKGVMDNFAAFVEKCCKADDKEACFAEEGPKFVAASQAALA
The description is as above.
Method: as §2, §3, §4

Test [7] concerns the target T2, mouse serum albumin. The test is described as above.
Method: as §2, §3, §4

The values that follow come from patent US20150225464A1 (Affibody, published 2015).

Residue numbers refer to the chain shown, from its start. Names and notes keep the numbering of the source.

T1 sequence (P02770 25-608 limits assumed): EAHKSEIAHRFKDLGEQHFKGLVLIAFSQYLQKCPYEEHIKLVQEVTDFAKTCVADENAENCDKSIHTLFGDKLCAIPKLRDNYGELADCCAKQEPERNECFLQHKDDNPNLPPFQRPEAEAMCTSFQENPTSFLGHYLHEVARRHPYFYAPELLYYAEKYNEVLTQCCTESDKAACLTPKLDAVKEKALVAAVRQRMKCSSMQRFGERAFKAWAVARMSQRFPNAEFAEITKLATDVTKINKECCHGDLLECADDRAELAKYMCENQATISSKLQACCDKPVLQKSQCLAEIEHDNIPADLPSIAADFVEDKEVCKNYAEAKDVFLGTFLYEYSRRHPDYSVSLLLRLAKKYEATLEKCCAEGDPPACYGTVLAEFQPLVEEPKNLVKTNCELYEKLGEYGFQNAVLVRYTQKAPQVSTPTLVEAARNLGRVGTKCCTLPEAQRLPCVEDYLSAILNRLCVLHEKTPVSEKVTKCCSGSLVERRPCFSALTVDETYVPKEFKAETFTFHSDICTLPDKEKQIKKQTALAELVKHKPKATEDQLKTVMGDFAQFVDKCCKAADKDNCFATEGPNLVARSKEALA
T3 sequence (P02768 25-609 limits assumed): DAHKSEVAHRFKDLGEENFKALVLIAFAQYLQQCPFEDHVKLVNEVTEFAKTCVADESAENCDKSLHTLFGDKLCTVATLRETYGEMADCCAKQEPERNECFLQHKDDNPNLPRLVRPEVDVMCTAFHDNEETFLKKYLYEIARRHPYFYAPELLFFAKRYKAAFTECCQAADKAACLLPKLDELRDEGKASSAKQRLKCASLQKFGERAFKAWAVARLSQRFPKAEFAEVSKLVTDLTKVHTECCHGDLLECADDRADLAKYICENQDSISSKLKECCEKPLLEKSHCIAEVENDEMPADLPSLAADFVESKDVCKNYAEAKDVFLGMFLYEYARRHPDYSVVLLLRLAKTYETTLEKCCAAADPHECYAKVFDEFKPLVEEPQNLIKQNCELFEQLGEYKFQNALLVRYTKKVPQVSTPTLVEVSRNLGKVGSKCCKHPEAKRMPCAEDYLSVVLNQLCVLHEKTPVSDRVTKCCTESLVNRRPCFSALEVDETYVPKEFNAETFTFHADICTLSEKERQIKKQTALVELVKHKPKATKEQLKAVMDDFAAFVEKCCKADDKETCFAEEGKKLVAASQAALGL

B1: PEP12379 (designed binder)
chain: GSSLAEAKEAANAELDSYGVSDFYKNLIDKAKTVEGVEALKDAILAALP
notes: R23N against PEP07843 (position counted on the 46-mer without GSS); Control polypeptide, expressed in E. coli; also called ABD variant; R23N variant of PEP07843
One may read the Kd as the concentration at which binding is half-saturated. Lower therefore signals higher affinity. The koff is the rate constant with which the complex falls apart. High values mean fast dissociation, low ones slow dissociation. One may read the kon as the second-order rate constant of association. Lower therefore signals slower complex formation. For the molecule B1, the binding result in test [1] is “binds”. Also, the binding result in test [2] is on record as “binds”. In test [3], this molecule showed a Kd of 14 pM, a koff of 2.36e-05 s⁻¹ and a kon of 1.7e+06 M⁻¹ s⁻¹.

B2: PEP12380 (designed binder)
chain: B1 chain with N26K
notes: Inventive variant; 46 residues with an N-terminal GSS extension; R23K against PEP07843 (position counted on the 46-mer without GSS); Expressed in E. coli; also called ABD variant; R23K variant of PEP07843
As to B2, the Kd in test [4] came out at 7.5 pM; in test [5], 9.3 pM; in test [6] it was 11 pM; in test [7], 117 pM; in test [3], 7.5 pM. The same molecule registered a koff in test [3] of 2.62e-05 s⁻¹. The same molecule displayed a kon in test [3] of 3.48e+06 M⁻¹ s⁻¹.

B3: PEP12381 (designed binder)
chain: B1 chain with N26S
notes: Control polypeptide; 46 residues with an N-terminal GSS extension; R23S against PEP07843 (position counted on the 46-mer without GSS); Expressed in E. coli; also called ABD variant; R23S variant of PEP07843
With B3, in test [1], the binding result was “binds”. Moreover, in test [2], the binding result is on record as “binds”. In addition, in test [3], binding was characterised by a dissociation constant (Kd) of 17 pM, the koff worked out at 3.08e-05 s⁻¹ and the kon came out at 1.83e+06 M⁻¹ s⁻¹.

B4: PEP07843 (designed binder)
chain: B1 chain with N26R
notes: single Arg at position 23 of the 46-mer; GSS extension at the N-terminus; also called ABD variant; control
Turning to B4, the Kd in test [4] worked out at 6.7 pM; in test [5], 8.2 pM; in test [6], 9.8 pM; in test [7], 87 pM; in test [3], 6.7 pM. The molecule also registered a koff in test [3] of 2.99e-05 s⁻¹. This molecule also displayed a kon in test [3] of 4.49e+06 M⁻¹ s⁻¹.

B5: PEP06923 (designed binder)
chain: GSSLAEAKVLANRELDKYGVSDFYKRLINKAKTVEGVEALKLHILAALP
notes: also called ABD variant; control polypeptide
With B5, the binding result in test [1] and in test [2] was “binds” in each case.
